For orientation: Kd means a measure of binding affinity in units of concentration. Read a low Kd as a tighter complex. In general, koff refers to the rate constant with which the complex falls apart. Read a high koff as a short-lived complex. One may read the kon as the rate constant with which the complex forms. Higher therefore signals faster complex formation.

The text below walks through data of patent publication CN113234143A.

The target in this assay is HBV表面抗原蛋白 (HBsAg) (Hepatitis B virus). Nature of the assay: SPR, Biacore 3000; 7E5 captured by AHC on a CM5 chip, HBsAg as analyte in 2-fold dilutions from 40 nM to 0 nM. In general terms: Surface plasmon resonance follows binding to a sensor surface in real time, without labels.

B1: 抗HBsAg单克隆抗体7E5 (antibody, V domains shown)
VH: EVQLQQSGPELVKPGASVKMSCKASGYTFTARGYNWVRQSHGKSLEWIGGINCRPTAMSPEDLVKDKATLTVDKSSNTVYMEFRSLTLEDSAIYFCARRECPINQGDYWGQGTIFTVSS
VL: EIVLTQSPALMAASPGEKVTITCGCARNTIWNNVGWYQQKSETSPKPWIYWASLFGKGVPVRFSGSGSGTSYSLTISSMEAEDAATYYCQDIQENWTPFGAGTKLELK
In the case of B1, the Kd stood at 21.5 nM, the koff was found to be 0.000445 s⁻¹ and the kon was 20700 M⁻¹ s⁻¹.
